Test results published in patent US11278600B2, “Human alpha-galactosidase variants” (Codexis, Inc., priority 2014, dated 2022).

B1: 277 (protein)
chain: LDNGLARTPTMGWLHWERFMCNLDCQEEPDSCISEKLFMEMAERMVSEGWKDAGYEYLCIDDCWMAPQRDSEGRLQADPQRFPHGIRQLANYVHSKGLKLGIYADVGNKTCAGFPGSFGYYDIDAQTFADWGVDLLKFDGCYCDSLENLADGYKHMSLALNRTGRSIVYSCEWPLYMWPFQKPNYTEIRQYCNHWRNFADIDDSWASIKSILDWTSRNQERIVDVAGPGGWNDPDMLVIGNFGLSWDQQVTQMALWAIMAAPLFMSNDLRHISPQAKALLQDKDVIAINQDPLGKQGYQLRQGDNFEVWERPLSGDAWAVAMINRQEIGGPRSYTIPVASLGKGVACNPACFITQLLPVKRKLGFYDWDSRLRSHINPTGTVLLQLENTMQMSLKDLL
modifications: Synthetic Polypeptide sequence of Variant No. 277 of mature Human GLA
B2: 280 (protein)
chain: LDNGLARTPTMGWLHWERFMCNLDCQEEPDSCISEKLFMEMAERMVSEGWKDAGYEYLCIDDCWMAPQRDSEGRLQADPQRFPHGIRQLANYVHSKGLKLGIYADVGNKTCAGFPGSFGYYDIDAQTFADWGVDLLKFDGCYCDSLENLADGYKHMSLALNRTGRSIVYSCEWPLYMWPFQKPNYTEIRQYCNHWRNFADIDDSWASIKSILDWTSRNQERIVDVAGPGGWNDPDMLVIGNFGLSWNQQVTQMALWAIMAAPLFMSNDLRHISPQAKALLQDKDVIAINQDPLGKQGYQLRKGDNFEVWERPLSGLAWAVAMINRQEIGGPRSYTIAVASLGKGVACNPACFITQLLPVKRKLGFYDWDSRLRSHINPTGTVLLQLENTMQMSLKDLL
modifications: Synthetic Polypeptide sequence of Variant No. 280 of mature Human GLA
B3: 282 (protein)
chain: LDNGLARTPTMGWLHWERFMCNLDCQEEPDSCISEKLFMEMAERMVSEGWKDAGYEYLCIDDCWMAPQRDSEGRLQADPQRFPHGIRQLANYVHSKGLKLGIYADVGNKTCAGFPGSFGYYDIDAQTFADWGVDLLKFDGCYCDSLENLADGYKHMSLALNRTGRSIVYSCEWPLYMWPFQKPNYTEIRQYCNHWRNFADIDDSWASIKSILDWTSFNQERIVDVAGPGGWNDPDMLVIGNFGLSWDQQVTQMALWAIMAAPLFMSNDLRHISPQAKALLQDKDVIAINQDPLGKQGYQLRQGDNFEVWERPLSGLAWAVAMINRQEIGGPRSYTIPVASLGKGVACNPACFITQLLPVKRKLGFYEWTSRLRSHINPTGTVLLQLENTMQMSLKDLL
modifications: Synthetic Polypeptide sequence of Variant No. 282 of mature Human GLA
B4: 283 (protein)
chain: LDNGLARTPTMGWLHWERFMCNLDCQEEPDSCISEKLFMEMAERMVSEGWKDAGYEYLCIDDCWMAPQRDSEGRLQADPQRFPHGIRQLANYVHSKGLKLGIYADVGNKTCAGFPGSFGYYDIDAQTFADWGVDLLKFDGCYCDSLENLADGYKHMSLALNRTGRSIVYSCEWPLYMWPFQKPNYTEIRQYCNHWRNFADIDDSWASIKSILDWTSFNQERIVDVAGPGGWNDPDMLVIGNFGLSWDQQVTQMALWAIMAAPLFMSNDLRHISPQAKALLQDKDVIAINQDPLGKQGYQLRKGDNFEVWERPLSGLAWAVAMINRQEIGGPRSYTIPVASLGKGVACNPGCFITQLLPVKRKLGFYDWDSRLRSHINPTGTVLLQLENTMQMSLKDLL
modifications: Synthetic Polypeptide sequence of Variant No. 283 of mature Human GLA
B5: 279 (protein)
chain: LDNGLARTPTMGWLHWERFMCNLDCQEEPDSCISEKLFMEMAERMVSEGWKDAGYEYLCIDDCWMAPQRDSEGRLQADPQRFPHGIRQLANYVHSKGLKLGIYADVGNKTCAGFPGSFGYYDIDAQTFADWGVDLLKFDGCYCDSLENLADGYKHMSLALNRTGRSIVYSCEWPLYMWPFQKPNYTEIRQYCNHWRNFADIDDSWASIKSILDWTSRNQERIVDVAGPGGWNDPDMLVIGNFGLSWDQQVTQMALWAIMAAPLFMSNDLRHISPQAKALLQDKDVIAINQDPLGKQGYQLRKGDNFEVWERPLSGLAWAVAMINRQEIGGPRSYTIAVASLGKGVACNPGCFITQLLPVKRKLGFYEWTSRLRSHINPTGTVLLQLENTMQMSLKDLL
modifications: Synthetic Polypeptide sequence of Variant No. 279 of mature Human GLA
B6: 278 (protein)
chain: LDNGLARTPTMGWLHWERFMCNLDCQEEPDSCISEKLFMEMAERMVSEGWKDAGYEYLCIDDCWMAPQRDSEGRLQADPQRFPHGIRQLANYVHSKGLKLGIYADVGNKTCAGFPGSFGYYDIDAQTFADWGVDLLKFDGCYCDSLENLADGYKHMSLALNRTGRSIVYSCEWPLYMWPFQKPNYTEIRQYCNHWRNFADIDDSWASIKSILDWTSRNQERIVDVAGPGGWNDPDMLVIGNFGLSWDQQVTQMALWAIMAAPLFMSNDLRHISPQAKALLQDKDVIAINQDPLGKQGYQLRQGDNFEVWERPLSGDAWAVAMINRQEIGGPRSYTIAVASLGKGVACNPGCFITQLLPVKRKLGFYDWDSRLRSHINPTGTVLLQLENTMQMSLKDLL
modifications: Synthetic Polypeptide sequence of Variant No. 278 of mature Human GLA
B7: 281 (protein)
chain: LDNGLARTPTMGWLHWERFMCNLDCQEEPDSCISEKLFMEMAERMVSEGWKDAGYEYLCIDDCWMAPQRDSEGRLQADPQRFPHGIRQLANYVHSKGLKLGIYADVGNKTCAGFPGSFGYYDIDAQTFADWGVDLLKFDGCYCDSLENLADGYKHMSLALNRTGRSIVYSCEWPLYMWPFQKPNYTEIRQYCNHWRNFADIDDSWASVKSILDWTSFNQEKIVDVAGPGGWNDPDMLVIGNFGLSWNQQVTQMALWAIMAAPLFMSNDLRHISPQAKALLQDKDVIAINQDPLGKQGYQLRQGDNFEVWERPLSGLAWAVAVINRQEIGGPRSYTIAVASLGDGVACNPACFITQLLPVKRKLGLYEWTSRLKSHINPTGTVLLQLENTMQMSLKDLL
modifications: Synthetic Polypeptide sequence of Variant No. 281 of mature Human GLA

Columns and labels:
Type in all cases: biochemical
[1] = HTP-analysis of supernatants pretreated with base (MUGal hydrolysis); settings: challenge at pH 7.6; activity of the variant/activity of Rd2BB (SEQ ID NO: 10); yeast culture supernatant
In short: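 Supernatants from INVSc1 yeast expressing GLA variants (SD-Ura, 66-84 h, 30° C) were mixed with McIlvaine buffer pH 7.0-8.2 or 200 mM sodium bicarbonate pH 9.1-9.7 and held 1-18 h at 37° C. Residual activity was then measured on MUGal at pH 4.8/4.3, 37° C, 30-180 min, by fluorescence (Ex 355/Em 448 nm).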

[2] = HTP-analysis of supernatants pretreated with acid (MUGal hydrolysis); settings: challenge at pH 4.2; activity of the variant/activity of Rd2BB (SEQ ID NO: 10); yeast culture supernatant
In short: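 GLA variants were secreted from INVSc1 yeast grown 66-84 h at 30° C. in SD-Ura with 2% glucose; supernatants were mixed with McIlvaine buffer pH 3.3-4.3 and held at 37° C. for 1-3 h. Residual activity on MUGal at pH 4.8 was then measured by fluorescence.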

[3] = HTP-analysis of yeast culture supernatants, no challenge (MUGal hydrolysis); settings: activity of the variant/activity of Rd2BB (SEQ ID NO: 10), yeast culture supernatant
In short: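 GLA variants were expressed in INVSc1 yeast grown in SD-Ura broth with glucose at 30° C., and culture supernatants were collected after 66-84 h. Supernatant was mixed with McIlvaine buffer pH 4.8 and MUGal (2 mM stock) in 50 mM citrate, 200 mM KCl, pH 4.6, incubated at 37° C. for 30-180 minutes, then quenched with sodium carbonate.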

[4] = HTP-analysis of supernatants pretreated with bovine serum (MUGal hydrolysis); settings: activity of the variant/activity of Rd2BB (SEQ ID NO: 10), yeast culture supernatant
In short: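 Yeast INVSc1 culture supernatants containing secreted GLA variants were mixed with bovine serum (20:80) and held 1 h at 37° C. Serum-treated samples then reacted with MUGal (4 mM stock) in citrate/McIlvaine buffer (pH 4.3/4.8) for 180 min at 37° C., were quenched with sodium carbonate, and read by fluorescence (Ex 355, Em 448 nm).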

Molecule | Relative Activity of GLA Variants After Challenge at pH 7.6 [1] | Relative Activity of GLA Variants After Challenge at pH 4.2 [2] | Relative Activity of GLA Variants After No Challenge (NC) [3] | Relative Activity of GLA Variants After Challenge with Serum [4]
B1 | +++ (+++ = >2.5 relative activity over Rd2BB (SEQ ID NO: 10)) | +++ (+++ = >2.5 relative activity over Rd2BB (SEQ ID NO: 10)) | +++ (+++ = >2.5 relative activity over Rd2BB (SEQ ID NO: 10)) | +++ (+++ = >2.5 relative activity over Rd2BB (SEQ ID NO: 10))
B2 | + (+ = 0.5 to 1.5 relative activity over Rd2BB (SEQ ID NO: 10)) | + (+ = 0.5 to 1.5 relative activity over Rd2BB (SEQ ID NO: 10)) | + (+ = 0.5 to 1.5 relative activity over Rd2BB (SEQ ID NO: 10)) | + (+ = 0.5 to 1.5 relative activity over Rd2BB (SEQ ID NO: 10))
B3 | + (+ = 0.5 to 1.5 relative activity over Rd2BB (SEQ ID NO: 10)) | + (+ = 0.5 to 1.5 relative activity over Rd2BB (SEQ ID NO: 10)) | + (+ = 0.5 to 1.5 relative activity over Rd2BB (SEQ ID NO: 10)) | + (+ = 0.5 to 1.5 relative activity over Rd2BB (SEQ ID NO: 10))
B4 | +++ (+++ = >2.5 relative activity over Rd2BB (SEQ ID NO: 10)) | +++ (+++ = >2.5 relative activity over Rd2BB (SEQ ID NO: 10)) | +++ (+++ = >2.5 relative activity over Rd2BB (SEQ ID NO: 10)) | +++ (+++ = >2.5 relative activity over Rd2BB (SEQ ID NO: 10))
B5 | +++ (+++ = >2.5 relative activity over Rd2BB (SEQ ID NO: 10)) | +++ (+++ = >2.5 relative activity over Rd2BB (SEQ ID NO: 10)) | ++ (++ = 1.5 to 2.5 relative activity over Rd2BB (SEQ ID NO: 10)) | +++ (+++ = >2.5 relative activity over Rd2BB (SEQ ID NO: 10))
B6 | +++ (+++ = >2.5 relative activity over Rd2BB (SEQ ID NO: 10)) | +++ (+++ = >2.5 relative activity over Rd2BB (SEQ ID NO: 10)) | +++ (+++ = >2.5 relative activity over Rd2BB (SEQ ID NO: 10)) | +++ (+++ = >2.5 relative activity over Rd2BB (SEQ ID NO: 10))
B7 | + (+ = 0.5 to 1.5 relative activity over Rd2BB (SEQ ID NO: 10)) | + (+ = 0.5 to 1.5 relative activity over Rd2BB (SEQ ID NO: 10)) | + (+ = 0.5 to 1.5 relative activity over Rd2BB (SEQ ID NO: 10)) | + (+ = 0.5 to 1.5 relative activity over Rd2BB (SEQ ID NO: 10))
